Data on eleven molecules can be found in publication PMC12817079.

Changes are numbered by the printed parent chain.

Data set [1] addresses T1, SOG1NAC (WT NAC domain) (Arabidopsis thaliana, UniProt Q6NQK2 58-211).
T1 sequence: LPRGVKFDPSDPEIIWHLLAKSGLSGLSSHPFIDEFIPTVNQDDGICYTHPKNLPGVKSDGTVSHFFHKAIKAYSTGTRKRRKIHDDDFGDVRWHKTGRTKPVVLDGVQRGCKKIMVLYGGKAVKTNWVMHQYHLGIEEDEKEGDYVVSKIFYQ
The data set is described as follows: ITC. For orientation: ITC needs no label: the signal is the heat of the interaction.

For data set [2], the target named is T1, SOG1NAC (WT NAC domain). Briefly: EMSA. (Mobility shift assays separate free from complexed probe on a gel.)
Data set [3] deals with T1, SOG1NAC (WT NAC domain). Briefly: EMSA. The source holds these as a separate data set.
The target in data set [4] is T1, SOG1NAC (WT NAC domain). The data set is described as follows: EMSA. The source holds these as a separate data set.
Data set [5] has as its target T1, SOG1NAC (WT NAC domain). Briefly: EMSA. The source holds these as a separate data set.
The target of data set [6] is T1, SOG1NAC (WT NAC domain). Briefly: EMSA. The source holds these as a separate data set.
For data set [7], the target named is T1, SOG1NAC (WT NAC domain). Briefly: EMSA. This is another data set of the same source.
For another data set, the target named is T2, SOG1NAC-RKRR (Arabidopsis thaliana, UniProt Q6NQK2 58-211, R136A;K137A;R138A;R139A).
T2 sequence: T1 sequence with R79A, K80A, R81A, R82A
The data set is described as follows: EMSA.

The target in a further data set is T3, SOG1NAC-DNAstrand (Arabidopsis thaliana, UniProt Q6NQK2 58-211, R150S;H152S;T154A;R156S;T157S).
T3 sequence: T1 sequence with R93S, H95S, T97A, R99S, T100S
Briefly: EMSA.

Data set [8] addresses T1, SOG1NAC (WT NAC domain). Briefly: ITC. The source holds these as a separate data set.

B1: non-target 31 bp (random) (dsDNA)
DNA 1: GTCGGCGATGGTGGTAACTAATTATGTTCCT
DNA 2: AGGAACATAATTAGTTACCACCATCGCCGAC
On to B1, for which, in the data set with SOG1NAC (WT NAC domain) [1], the binding result is given as “no binding”.

B2: Designed oligo 2 (one pBRCA1 site) (dsDNA)
DNA 1: TCTGTAAAGCTTTCAAGGGAAGCCTCTTTGACGTAACAGAAACCCCGGAGTAAGCTCCCGTGGGGTCGGCGATGGTGGTAACTAATTATGTTCCT
DNA 2: AGGAACATAATTAGTTACCACCATCGCCGACCCCACGGGAGCTTACTCCGGGGTTTCTGTTACGTCAAAGAGGCTTCCCTTGAAAGCTTTACAGA
Consider B2, for which the binding result with SOG1NAC (WT NAC domain) [2] is on record as “binds”.

B3: Designed oligo 1 (two pBRCA1 sites) (dsDNA)
DNA 1: TCTGTAAAGCTTTCAAGGGAAGCCTCTTTGACGTAACAGAAACCCCGGAGTAAGCTCCCGTGGGTCTGTAAAGCTTTCAAGGGAAGCCTCTTTGA
DNA 2: TCAAAGAGGCTTCCCTTGAAAGCTTTACAGACCCACGGGAGCTTACTCCGGGGTTTCTGTTACGTCAAAGAGGCTTCCCTTGAAAGCTTTACAGA
On to B3, for which the binding result in the data set with SOG1NAC (WT NAC domain) [3] is given as “binds”.

B4: pSMR5 97 bp (dsDNA)
DNA 1: TACCTAGCAACTTCCAGAACAAGCTACGGTCACTTCCAAAACTAGTGTAATAAAGAAGCAATCTAATTAAGAACCTTATTAGGAAAGTGCGAGAGAG
DNA 2: CTCTCTCGCACTTTCCTAATAAGGTTCTTAATTAGATTGCTTCTTTATTACACTAGTTTTGGAAGTGACCGTAGCTTGTTCTGGAAGTTGCTAGGTA
Turning to B4, the binding result in the data set with SOG1NAC (WT NAC domain) [4] is reported as “binds”.

B5: pSMR5 site 2 (RC) (dsDNA)
DNA 1: TTAGATTGCTTCTTTATTACACTAGTTTTGG
DNA 2: CCAAAACTAGTGTAATAAAGAAGCAATCTAA
As to B5, in the data set with SOG1NAC (WT NAC domain) [5], the binding result is “binds”.

B6: pTKa1 31 bp (dsDNA)
DNA 1: TGACAAATCTTCTCCAGCAATTTTCTTCCTT
DNA 2: AAGGAAGAAAATTGCTGGAGAAGATTTGTCA
For the molecule B6, the binding result in the data set with SOG1NAC (WT NAC domain) [6] is listed as “binds”.

B7: pSMR5 site 1 (RC) (dsDNA)
DNA 1: TGACCGTAGCTTGTTCTGGAAGTTGCTAGGT
DNA 2: ACCTAGCAACTTCCAGAACAAGCTACGGTCA
On to B7, for which the binding result in the data set with SOG1NAC (WT NAC domain) [5] is reported as “binds”.

B8: pSMR5 site 3 (dsDNA)
DNA 1: ATTAAGAACCTTATTAGGAAAGTGCGAGAGA
DNA 2: TCTCTCGCACTTTCCTAATAAGGTTCTTAAT
Take B8: in the data set with SOG1NAC (WT NAC domain) [7], the binding result was “no binding”.

B9: pBRCA1 31 bp (dsDNA)
DNA 1: TCAAAGAGGCTTCCCTTGAAAGCTTTACAGA
DNA 2: TCTGTAAAGCTTTCAAGGGAAGCCTCTTTGA
For orientation: Kd means the constant that tells how readily two partners part at equilibrium. Low values mean higher affinity, high ones lower affinity. On to B9, for which the binding result with SOG1NAC-RKRR and with SOG1NAC-DNAstrand was “no binding” throughout. This molecule also yielded a Kd with SOG1NAC (WT NAC domain) [8] of 0.139 µM.

B10: pXRI1 31 bp (dsDNA)
DNA 1: ATAAAAAGCTTCTCTTGCAATTCTCTCTTCC
DNA 2: GGAAGAGAGAATTGCAAGAGAAGCTTTTTAT
In the case of B10, the binding result with SOG1NAC (WT NAC domain) [6] is listed as “binds”.

B11: pBRCA1 49 bp (dsDNA)
DNA 1: GCGTGTCCTTCAAAGAGGCTTCCCTTGAAAGCTTTACAGACTAAATAAA
DNA 2: TTTATTTAGTCTGTAAAGCTTTCAAGGGAAGCCTCTTTGAAGGACACGC
With B11, the binding result with SOG1NAC (WT NAC domain) [5] is “binds”.
